Data taken from paper PMC10433801.

Each substance was assayed against CsrA-H6 (Salmonella Typhimurium / Escherichia coli (sequences stated identical)) (UniProt P69913) (assay: EMSA). Conditions: RNA EMSA: 10 mM Tris-HCl pH 7.5, 10 mM MgCl2, 100 mM KCl, 200 ng/uL yeast RNA, 0.2 mg/mL BSA, 7.5% glycerol, 20 mM DTT, 37 C 30 min; DNA EMSA: 10 mM Tris pH ….
Sequence of CsrA-H6 (Salmonella Typhimurium / Escherichia coli (sequences stated identical)) (UniProt P69913) (P69913 whole entry): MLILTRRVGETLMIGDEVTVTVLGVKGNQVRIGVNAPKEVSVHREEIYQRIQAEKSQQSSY
“GGGACAAAAAAUUGCCACGAUGACGGCAGUUUCAGUGGAGACGGUGAGCAAUGAAUAAAGAACGCAUUAUUCAGGAAUUUGUGCCGGGCAAACAGGUC [eutS RNA (-47 to +48)]” gave a Kd of 5.7 nM.
In the case of “GGGACUUUUUAUCAGGGCCAGGAUAAUGGUAAUAAAAAGUGAAUGUAAAUAAUGUGUUUUGUUUAUAACAAUAAAUUAACUGAGGGGUUUUAUCAUG [pocR RNA (-91 to +3)]”, the Kd is reported as 7.4 nM.
In the case of “GGGUUCUUAUAGUCCCAACUAUCGGAACACUCCAUGCGAGGUCUUUAUGCAACAAGAAGCACUAGGAAUGGUAGAAACCAAAGG [pduA RNA (-44 to +38)]”, the Kd is reported as 31 nM.

What follows are substances tested on CsrA-H6 (Salmonella Typhimurium / Escherichia coli (sequences stated identical)) (assay: EMSA). Conditions: 10 mM MgCl2; yeast RNA 200 ng/uL; apparent Kd; RNA EMSA: 10 mM Tris-HCl pH 7.5, 10 mM MgCl2, 100 mM KCl, 200 ng/uL yeast RNA, 0.2 mg/mL BSA, 7.5% glycerol, 20 mM DTT, 37 C 30 min; DNA EMSA: 10 mM Tris pH ….
With pduA RNA (-44 to +38) the Kd was 31 nM.
With eutS RNA (-47 to +48) the Kd was 5.7 nM.
In the case of pocR RNA (-91 to +3), the Kd is reported as 7.4 nM.
